Results: article PMC7852052

How the values were obtained:
TNFR1-Fc = TNFR1-Fc (UniProt P25118); experiment: BLI
TNFR2-Fc = TNFR2-Fc (UniProt P25119); experiment: BLI
Sequence of UniProt P25119 (P25119 23-258): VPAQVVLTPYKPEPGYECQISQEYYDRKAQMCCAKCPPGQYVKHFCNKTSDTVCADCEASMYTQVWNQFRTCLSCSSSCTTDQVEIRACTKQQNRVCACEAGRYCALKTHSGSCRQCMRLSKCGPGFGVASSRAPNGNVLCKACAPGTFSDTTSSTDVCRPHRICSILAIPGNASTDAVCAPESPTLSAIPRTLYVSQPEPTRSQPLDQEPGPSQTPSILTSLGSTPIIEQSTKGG

Sequence of UniProt P25118 (P25118 30-212): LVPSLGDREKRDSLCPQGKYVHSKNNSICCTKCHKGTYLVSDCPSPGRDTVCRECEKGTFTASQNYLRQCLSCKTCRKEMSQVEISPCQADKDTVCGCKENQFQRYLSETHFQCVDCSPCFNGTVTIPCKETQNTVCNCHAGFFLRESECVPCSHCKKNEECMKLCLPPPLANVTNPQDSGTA

Kd (TNFR1-Fc) | Kd (TNFR2-Fc) | Substance
0.741 nM | 4.63 nM | native NGR-TNFα with leucine at the start of TNFα (NGR-TNFα-L)
0.309 nM | 2.1 nM | native murine TNFα with leucine at the start (TNFα-L) (ligand)
0.526 nM | 2.45 nM | mutated NGR-TNFα with valine at the start of TNFα (NGR-TNFα-V)
0.326 nM | 1.86 nM | mutated murine TNFα with valine at the start (TNFα-V) (ligand)
